Data on three molecules can be found in paper PMC9127186, “Molecular Basis Underlying Hepatobiliary and Renal Excretion of Phenolic Acids of Salvia miltiorrhiza Roots (Danshen)” (Frontiers in Pharmacology, 2022).

One data set deals with T1, rat Pept1 (Rattus norvegicus, UniProt P51574).
T1 sequence (P51574 1-710): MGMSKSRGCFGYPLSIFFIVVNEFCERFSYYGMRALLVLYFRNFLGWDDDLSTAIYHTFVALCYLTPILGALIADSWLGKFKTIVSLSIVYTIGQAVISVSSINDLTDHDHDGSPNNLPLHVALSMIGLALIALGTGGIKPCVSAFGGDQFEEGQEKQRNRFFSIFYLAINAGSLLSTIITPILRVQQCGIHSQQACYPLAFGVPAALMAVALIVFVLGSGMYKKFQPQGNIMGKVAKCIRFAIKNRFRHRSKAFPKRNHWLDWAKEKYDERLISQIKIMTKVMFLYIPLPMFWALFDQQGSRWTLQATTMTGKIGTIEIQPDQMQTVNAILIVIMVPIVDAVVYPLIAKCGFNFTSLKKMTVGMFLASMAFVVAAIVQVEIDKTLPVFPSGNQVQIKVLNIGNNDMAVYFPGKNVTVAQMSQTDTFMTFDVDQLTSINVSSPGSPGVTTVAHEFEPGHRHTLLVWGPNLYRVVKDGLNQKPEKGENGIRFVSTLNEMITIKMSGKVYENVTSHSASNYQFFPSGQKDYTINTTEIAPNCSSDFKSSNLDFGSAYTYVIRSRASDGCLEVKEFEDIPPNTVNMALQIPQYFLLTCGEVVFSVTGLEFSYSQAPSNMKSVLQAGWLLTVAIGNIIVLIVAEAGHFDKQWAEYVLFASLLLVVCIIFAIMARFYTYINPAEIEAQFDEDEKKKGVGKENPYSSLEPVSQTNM
The experiment in a line: Cellular transport assay, HEK-293 cells expressing rat Pept1. Conditions: positive substrate 20 μM, 10 min; rat Pept1.

The target in the next data set is T2, rat Pept2 (Rattus norvegicus, UniProt Q63424).
T2 sequence (Q63424 1-729): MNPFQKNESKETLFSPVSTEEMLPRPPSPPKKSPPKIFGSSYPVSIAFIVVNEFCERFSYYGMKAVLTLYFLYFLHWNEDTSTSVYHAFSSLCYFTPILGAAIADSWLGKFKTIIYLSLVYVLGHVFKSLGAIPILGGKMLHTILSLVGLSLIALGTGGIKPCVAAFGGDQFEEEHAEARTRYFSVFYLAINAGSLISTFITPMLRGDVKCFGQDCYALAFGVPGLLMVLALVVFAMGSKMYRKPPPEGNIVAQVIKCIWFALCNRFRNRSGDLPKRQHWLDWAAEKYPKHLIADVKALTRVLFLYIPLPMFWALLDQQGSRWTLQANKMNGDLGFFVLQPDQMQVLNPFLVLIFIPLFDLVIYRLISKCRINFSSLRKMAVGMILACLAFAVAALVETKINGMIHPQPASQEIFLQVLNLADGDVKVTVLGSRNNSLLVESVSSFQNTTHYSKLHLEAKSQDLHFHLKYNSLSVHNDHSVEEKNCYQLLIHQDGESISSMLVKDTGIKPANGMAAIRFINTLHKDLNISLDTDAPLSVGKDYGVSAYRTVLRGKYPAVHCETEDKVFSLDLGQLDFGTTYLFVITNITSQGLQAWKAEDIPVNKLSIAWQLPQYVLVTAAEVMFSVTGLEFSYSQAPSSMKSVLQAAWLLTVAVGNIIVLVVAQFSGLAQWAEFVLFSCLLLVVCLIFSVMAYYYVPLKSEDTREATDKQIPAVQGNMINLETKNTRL
The experiment in a line: Cellular transport assay, HEK-293 cells expressing rat Pept2. The conditions noted are these: positive substrate 20 μM, 10 min; rat Pept2.

The next data set deals with T3, human PEPT1 (Homo sapiens, UniProt P46059).
T3 sequence (P46059 1-708): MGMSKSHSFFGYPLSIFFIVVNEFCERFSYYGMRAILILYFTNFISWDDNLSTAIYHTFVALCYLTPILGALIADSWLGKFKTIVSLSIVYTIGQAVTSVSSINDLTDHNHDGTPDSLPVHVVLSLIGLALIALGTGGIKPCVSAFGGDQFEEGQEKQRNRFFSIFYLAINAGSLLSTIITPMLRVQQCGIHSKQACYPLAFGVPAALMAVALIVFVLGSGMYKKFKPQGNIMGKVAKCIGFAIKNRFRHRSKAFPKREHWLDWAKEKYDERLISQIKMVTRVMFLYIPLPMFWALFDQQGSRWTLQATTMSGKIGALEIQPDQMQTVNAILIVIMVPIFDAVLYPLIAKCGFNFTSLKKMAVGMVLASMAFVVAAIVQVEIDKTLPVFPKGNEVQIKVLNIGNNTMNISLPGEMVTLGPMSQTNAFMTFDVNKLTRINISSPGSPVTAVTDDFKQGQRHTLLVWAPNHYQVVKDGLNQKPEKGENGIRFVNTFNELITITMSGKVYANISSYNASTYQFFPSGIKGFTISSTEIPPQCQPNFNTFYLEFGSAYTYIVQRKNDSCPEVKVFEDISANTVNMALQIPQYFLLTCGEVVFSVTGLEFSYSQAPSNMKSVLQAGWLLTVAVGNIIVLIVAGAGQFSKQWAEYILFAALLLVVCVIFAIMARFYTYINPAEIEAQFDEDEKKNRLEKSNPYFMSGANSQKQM
The experiment in a line: Cellular transport assay, HEK-293 cells expressing human PEPT1. The conditions noted are these: positive substrate 20 μM, 10 min; human transporter printed PEPE1.

The target in the next data set is T4, human PEPT2 (Homo sapiens, UniProt Q16348).
T4 sequence (Q16348 1-729): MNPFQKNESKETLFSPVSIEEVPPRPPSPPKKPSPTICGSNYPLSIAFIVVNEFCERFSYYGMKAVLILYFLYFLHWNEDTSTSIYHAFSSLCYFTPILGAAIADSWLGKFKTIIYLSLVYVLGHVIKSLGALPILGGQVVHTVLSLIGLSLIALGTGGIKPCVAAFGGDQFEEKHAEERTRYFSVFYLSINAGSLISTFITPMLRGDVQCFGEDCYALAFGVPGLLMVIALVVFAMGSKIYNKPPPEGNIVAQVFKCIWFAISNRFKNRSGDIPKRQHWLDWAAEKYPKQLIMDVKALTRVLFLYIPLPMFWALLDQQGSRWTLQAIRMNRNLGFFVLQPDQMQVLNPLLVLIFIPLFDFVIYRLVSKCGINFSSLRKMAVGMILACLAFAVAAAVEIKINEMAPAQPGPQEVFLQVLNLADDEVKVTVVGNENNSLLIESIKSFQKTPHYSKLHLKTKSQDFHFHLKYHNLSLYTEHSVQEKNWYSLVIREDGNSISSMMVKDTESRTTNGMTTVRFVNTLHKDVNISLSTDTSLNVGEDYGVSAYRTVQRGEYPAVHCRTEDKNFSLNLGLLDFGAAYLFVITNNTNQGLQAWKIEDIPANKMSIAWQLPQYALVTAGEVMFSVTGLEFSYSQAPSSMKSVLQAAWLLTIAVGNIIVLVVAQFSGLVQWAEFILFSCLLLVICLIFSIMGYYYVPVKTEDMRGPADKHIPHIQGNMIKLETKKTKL
The experiment in a line: Cellular transport assay, HEK-293 cells expressing human PEPT2. Conditions: positive substrate 20 μM, 10 min; human PEPT2.

Substrate in data set [1]: O=C(/C=C/c1ccc(O)c(O)c1)O[C@H](Cc1ccc(O)c(O)c1)C(=O)O
Put plainly: cells, lysate or membranes named. The conditions noted are these: 5 min incubation, concentrations in Table 1, 37.0 °C.

Substrate in data set [2]: O=C(/C=C/c1ccc(O)c(O)c1/C=C/c1ccc(O)c(O)c1)O[C@H](Cc1ccc(O)c(O)c1)C(=O)O
The experiment in a line: cells, lysate or membranes named. Conditions: other: rat hepatic sinusoidal uptake Oatp1b2; 5 min incubation, concentrations in Table 1; 37.0 °C.

Substrate in data set [3]: O=C(/C=C/c1ccc(O)c2c1[C@H](C(=O)O)[C@@H](c1ccc(O)c(O)c1)O2)O[C@H](Cc1ccc(O)c(O)c1)C(=O)O
The experiment in a line: cells, lysate or membranes named. Conditions: 5 min incubation, concentrations in Table 1, 37.0 °C.

Substrate in data set [4]: O=C(O)Cc1c(/C=C/C(=O)OC(Cc2ccc(O)c(O)c2)C(=O)O)ccc(O)c1O
Put plainly: cells, lysate or membranes named. The conditions noted are these: 5 min incubation, concentrations in Table 1, 37.0 °C.

Setting [5] is: other: rat hepatic sinusoidal uptake Oatp1b2.
The mark [6] stands for this setting: other: human hepatic sinusoidal uptake OATP1B1.

Where a SMILES comes first, the peptide text is derived from it. [ ]: non-standard residue; d: D form. Sar = CNCC(=O)O

In the case of `CN(CC(=O)O)C(=O)CN` [GS, glycylsarcosine, reference compound] (H-Gly-[Sar]-OH), the “TransportTC/TransportMC ratio, positive substrate” value at rat Pept1 is on record as 90.1 ± 10.4 (GS); on rat Pept2 it was 101 ± 19 (GS); at human PEPT1, 126 ± 31 (GS); on human PEPT2 it was 360 ± 49 (GS).

B1: rat Oatp1b2 (Rattus norvegicus) (protein)
chain: MDHTQQSRKAAEAQPSRSKQTRFCDGFKLFLAALSFSYICKALGGVVMKSSITQIERRFDIPSSISGLIDGGFEIGNLLVIVFVSYFGSKLHRPKLIGIGCFIMGIGSILTALPHFFMGYYKYAKENDIGSLGNSTLTCFINQMTSPTGPSPEIVEKGCEKGLKSHMWIYVLMGNMLRGIGETPIVPLGISYLDDFAKEGHTSMHLGTLHTIAMIGPILGFIMSSVFAKIYVDVGYVDLNSVRITPNDARWVGAWWLSFIVNGLLCITSSIPFFFLPKIPKRSQEERKNSVSLHAPKTDEEKKHMTNLTKQEEQDPSNMTGFLRSLRSILTNEIYVIFLILTLLQVSGFIGSFTYLFKFIEQQFGRTASQANFLLGIITIPTMATAMFLGGYIVKKFKLTSVGIAKFVFFTSSVAYAFQFLYFPLLCENKPFAGLTLTYDGMNPVDSHIDVPLSYCNSDCSCDKNQWEPICGENGVTYISPCLAGCKSFRGDKKPNNTEFYDCSCISNSGNNSAHLGECPRYKCKTNYYFYIILQVTVSFFTAMGSPSLILILMKSVQPELKSLAMGFHSLIIRALGGILAPIYYGAFIDRTCIKWSVTSCGKRGACRLYNSRLFGFSYLGLNLALKTPPLFLYVVLIYFTKRKYKRNDNKTLENGRQFTDEGNPDSVNKNGYYCVPYDEQSNETPL
Regarding B1, the Vmax turned out to be 0.000159 µmol/min/mg in data set [1] (setting [5]), 1.92e-05 µmol/min/mg in data set [2], 3.77e-05 µmol/min/mg in data set [3] (setting [5]) and 0.000572 µmol/min/mg in data set [4] (setting [5]). Further, the Vmax/Km came to 0.08 µL/min/mg in data set [1] (setting [5]), 0.38 µL/min/mg in data set [2], 0.41 µL/min/mg in data set [3] (setting [5]) and 1.23 µL/min/mg in data set [4] (setting [5]).

B2: human OATP1B1 (Homo sapiens) (protein)
chain: MDQNQHLNKTAEAQPSENKKTRYCNGLKMFLAALSLSFIAKTLGAIIMKSSIIHIERRFEISSSLVGFIDGSFEIGNLLVIVFVSYFGSKLHRPKLIGIGCFIMGIGGVLTALPHFFMGYYRYSKETNINSSENSTSTLSTCLINQILSLNRASPEIVGKGCLKESGSYMWIYVFMGNMLRGIGETPIVPLGLSYIDDFAKEGHSSLYLGILNAIAMIGPIIGFTLGSLFSKMYVDIGYVDLSTIRITPTDSRWVGAWWLNFLVSGLFSIISSIPFFFLPQTPNKPQKERKASLSLHVLETNDEKDQTANLTNQGKNITKNVTGFFQSFKSILTNPLYVMFVLLTLLQVSSYIGAFTYVFKYVEQQYGQPSSKANILLGVITIPIFASGMFLGGYIIKKFKLNTVGIAKFSCFTAVMSLSFYLLYFFILCENKSVAGLTMTYDGNNPVTSHRDVPLSYCNSDCNCDESQWEPVCGNNGITYISPCLAGCKSSSGNKKPIVFYNCSCLEVTGLQNRNYSAHLGECPRDDACTRKFYFFVAIQVLNLFFSALGGTSHVMLIVKIVQPELKSLALGFHSMVIRALGGILAPIYFGALIDTTCIKWSTNNCGTRGSCRTYNSTSFSRVYLGLSSMLRVSSLVLYIILIYAMKKKYQEKDINASENGSVMDEANLESLNKNKHFVPSAGADSETHC
B2: the Vmax was 9.81e-05 µmol/min/mg in data set [1] (setting [6]), 2.7e-05 µmol/min/mg in data set [3] (setting [6]) and 8.93e-05 µmol/min/mg in data set [4] (setting [6]). Also, the Vmax/Km came to 0.07 µL/min/mg in data set [1] (setting [6]), 0.06 µL/min/mg in data set [3] (setting [6]) and 0.22 µL/min/mg in data set [4] (setting [6]).

For orientation: Vmax means the top rate of the reaction or transport when substrate is in excess.
